T1: Cynomolgus CD3εδ Fc heterodimer (Cy CD3ε Fc / CD3δ Fc-HIS) (cynomolgus, UniProt Q95LI8 22-100)
T1 chain 1: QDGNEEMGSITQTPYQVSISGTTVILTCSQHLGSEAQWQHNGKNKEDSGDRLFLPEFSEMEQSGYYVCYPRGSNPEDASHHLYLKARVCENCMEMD
T1 chain 2: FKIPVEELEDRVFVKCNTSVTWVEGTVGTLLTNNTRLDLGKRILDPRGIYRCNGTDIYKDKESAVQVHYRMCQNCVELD

B1: SAD10319_P04_D12 (ADI-57342) (antibody, V domains shown)
VH: QVQLVQSGAEVKKPGASVKVSCKASGYTFTSYAMHWVRQAPGQRLDWMGYINPDTGDTKYSQKFQGRVTITRDTSASTAYMELSSLRSEDTAVYYCARDAYHHYFYDVWGQGTLVTVSS
VL: DIVMTQSPDSLAVSLGERATINCKSSQSLLNARTGKNYLAWYQQKPGQPPKLLIYWASTRESGVPDRFSGSGSGTDFTLTISSLQAEDVAVYYCKQSYSRRTFGGGTKVEIK
notes: IgG; also called Ab42
B2: SAD10320_P01_D03 (ADI-57356) (antibody, V domains shown)
VH: QVQLVQSGAEVKKPGASVKVSCKASGFDIKDYYMHWVRQAPGQRLEWMGWIDLENANTIYDAKFQGRVTITRDTSASTAYMELSSLRSEDTAVYYCARDAYGHAFYDVWGQGTLVTVSS
VL: B1 VL with S99H, R100G
notes: IgG; also called Ab63
B3: SAD10320_P02_H06 (ADI-57372) (antibody, V domains shown)
VH: B2 VH with D28N, H103R, A104N, F105H
VL: B1 VL with N37S, S99V, R100H
notes: IgG; also called Ab89
B4: SAD10320_P04_G10 (ADI-48658) (antibody, V domains shown)
VH: B2 VH with D28N, A104D
VL: B1 VL
notes: IgG; also called Ab108
B5: SAD10320_P03_D08 (ADI-57377) (antibody, V domains shown)
VH: B2 VH with D28N, A104Q
VL: B1 VL with S99H, R100T
notes: IgG; also called Ab95
B6: SAD10320_P03_F08 (ADI-57378) (antibody, V domains shown)
VH: B2 VH with D28N, A104D
VL: B1 VL with T34P
notes: IgG; also called Ab96
B7: SAD10320_P02_A04 (ADI-57360) (antibody, V domains shown)
VH: B2 VH with D28N
VL: B1 VL with Y98L, S99H
notes: IgG; also called Ab68
B8: SAD10320_P01_G02 (ADI-57351) (antibody, V domains shown)
VH: B2 VH with D28N, E46Q, A104S
VL: B1 VL with S99H, R100E
notes: IgG; also called Ab57
B9: SAD10320_P04_A10 (ADI-57382) (antibody, V domains shown)
VH: B2 VH with D28N, E46D, A104D
VL: B1 VL
notes: IgG; also called Ab103
B10: SAD10320_P02_H04 (ADI-57362) (antibody, V domains shown)
VH: B2 VH with D28N, E46D, A104L
VL: B1 VL with Y98H, S99M
notes: IgG; also called Ab73
B11: SAD10320_P01_H02 (ADI-57352) (antibody, V domains shown)
VH: B2 VH with D28N, A104S
VL: B1 VL with Y98M, S99H
B12: SAD10320_P02_A06 (ADI-57367) (antibody, V domains shown)
VH: B2 VH with D28N, E46P, Y101H, G102E, H103R, A104Y
VL: B1 VL with Y98H, S99L
notes: IgG; also called Ab82
B13: SAD10320_P01_H03 (ADI-57359) (antibody, V domains shown)
VH: B2 VH with D28N, L45P, Y101A, G102H, H103R, A104Y
VL: B1 VL with T34P, G35R, Y98H, S99D
notes: IgG; also called Ab67
B14: SAD10320_P03_C09 (ADI-57381) (antibody, V domains shown)
VH: B2 VH with K23E, D28N, A104V
VL: B1 VL with S99L, R100H
notes: IgG; also called Ab99
B15: SAD10320_P01_G03 (ADI-57358) (antibody, V domains shown)
VH: B2 VH with D28N, L45P, A104S
VL: B1 VL with S99H, R100W
notes: IgG; also called Ab66
B16: SAD10320_P03_A09 (ADI-57380) (antibody, V domains shown)
VH: B2 VH with D28N, A104V
VL: B1 VL with Y98S, S99H
notes: IgG; also called Ab98
B17: SAD10320_P04_E10 (ADI-48657) (antibody, V domains shown)
VH: B2 VH with D28N, L45P, A104D
VL: B1 VL
notes: IgG; also called Ab106
B18: SAD10320_P02_E06 (ADI-57369) (antibody, V domains shown)
VH: B2 VH with G8E, D28N, E46Q, A104G
VL: B1 VL with T34P
notes: IgG; also called Ab86
B19: SAD10320_P02_A05 (ADI-57363) (antibody, V domains shown)
VH: B2 VH with D28N, A104M
VL: B1 VL with T34P, S99H, R100M
B20: SAD10320_P01_F02 (ADI-57350) (antibody, V domains shown)
VH: B2 VH with D28N, W47R, A104T
VL: B1 VL with S99W, R100H
notes: IgG; also called Ab56
B21: SAD10320_P01_C02 (ADI-57348) (antibody, V domains shown)
VH: B2 VH with D28N, E46D, Y101G, G102H, H103R, A104Y
VL: B1 VL with T34P, K95G, Q96H
notes: IgG; also called Ab54
B22: SAD10319_P04_H12 (ADI-57344) (antibody, V domains shown)
VH: B1 VH with Y32D, A33H, D46E, Y50S, P53A, D54G, D57A, H102G, V108H
VL: B1 VL
notes: IgG; also called Ab45
B23: SAD10320_P03_H08 (ADI-57379) (antibody, V domains shown)
VH: B2 VH with D28N, A104V
VL: B1 VL with R33S, G35A, S99R, R100H
notes: IgG; also called Ab97
B24: SAD10320_P02_B04 (ADI-57273) (antibody, V domains shown)
VH: B2 VH with D28N, W47R, A104G
VL: B1 VL with S99G, R100H
notes: IgG; ADI-57273 is also printed for Ab114; also called Ab70
B25: SAD10320_P02_B05 (ADI-57364) (antibody, V domains shown)
VH: B2 VH with D28N, A104N
VL: B1 VL with S99T, R100H
notes: IgG; also called Ab75
B26: SAD10320_P01_H01 (ADI-57347) (antibody, V domains shown)
VH: B2 VH with D28N, E46D, A104N
VL: B1 VL with S99H, R100K
notes: IgG; also called Ab52
B27: SAD10320_P03_E07 (ADI-57374) (antibody, V domains shown)
VH: B2 VH with D28N, Y101V, G102H, H103R, A104Y
VL: B1 VL with S99H, R100P
notes: IgG; also called Ab92
B28: SAD10319_P04_F12 (ADI-57343) (antibody, V domains shown)
VH: B1 VH with T30N, S31D, Y50W, D57N, K59N, A100H, H102G, H103R, V108H
VL: B1 VL
notes: IgG; also called Ab44
B29: SAD10320_P01_G01 (ADI-57346) (antibody, V domains shown)
VH: B2 VH with D28N, A104S
VL: B1 VL with S99H, R100L
notes: IgG; also called Ab51
B30: SAD10320_P02_E05 (ADI-57366) (antibody, V domains shown)
VH: B2 VH with D28N, A100M, Y101H, H103R, A104Y
VL: B1 VL with Y98E, S99H
notes: IgG; also called Ab78
B31: SAD10320_P01_C03 (ADI-57355) (antibody, V domains shown)
VH: B2 VH with D28N, A104S
VL: B1 VL with S99H, R100W
notes: IgG; also called Ab62
B32: SAD10320_P01_E03 (ADI-57357) (antibody, V domains shown)
VH: B2 VH with D28N, W47R, A104G
VL: B1 VL with S99R, R100H
notes: IgG; also called Ab64
B33: SAD10319_P04_E12 (ADI-48642) (antibody, V domains shown)
VH: QVQLVQSGAEVKKPGASVKVSCKASGYTFTSYPMHWVRQAPGQRLEWMGWIDAGTGLTTYSQKFQGRVTITRDTSASTAYMELSSLRSEDTAVYYCARDHYHRYFYDMWGQGTLVTVSS
VL: B1 VL
notes: IgG; also called Ab43
B34: SAD10320_P02_D06 (ADI-57368) (antibody, V domains shown)
VH: B2 VH with D28N, L45P, E46A, A104G
VL: B1 VL with S99G, R100H
notes: IgG; also called Ab85
B35: SAD10320_P03_B07 (ADI-57373) (antibody, V domains shown)
VH: B2 VH with D28N, E46A, A104D
VL: B1 VL
notes: IgG; also called Ab90
B36: SAD10320_P03_C08 (ADI-57376) (antibody, V domains shown)
VH: B2 VH with K23E, D28N, R44T, E46A, A104V
VL: B1 VL with S99L, R100H
notes: IgG; also called Ab94
B37: SAD10320_P04_D10 (ADI-57384) (antibody, V domains shown)
VH: B2 VH with K23E, D28N, L45P, A104V
VL: B1 VL with S99L, R100H
notes: IgG; also called Ab105
B38: SAD10320_P02_C05 (ADI-57365) (antibody, V domains shown)
VH: B2 VH with F27S, D28N, A104S
VL: B1 VL with S99H, R100G
notes: IgG; also called Ab76
B39: SAD10320_P04_C10 (ADI-57383) (antibody, V domains shown)
VH: B2 VH with D28N
VL: B1 VL with S99H, R100Q
notes: IgG; also called Ab104
B40: SAD10320_P04_F10 (ADI-57385) (antibody, V domains shown)
VH: B2 VH with D28N, R44T, E46D, H103R, A104N, F105H
VL: B1 VL with T34P, S99L, R100H
notes: IgG; also called Ab107
B41: SAD10320_P01_F01 (ADI-57345) (antibody, V domains shown)
VH: B2 VH with D28N, L45P, E46A, Y101S, G102H, H103R, A104Y
VL: B1 VL with K95G, Q96H
notes: IgG; also called Ab50
B42: SAD10320_P03_F09 (ADI-48656) (antibody, V domains shown)
VH: B2 VH with D28N, A104D
VL: B1 VL with S99H
notes: IgG; also called Ab101

Changes are numbered by the printed parent chain.

The values below come from patent US20220380463A1 (Adimab, published 2022).

One may read the koff as the rate constant with which the complex falls apart. A low value points to slow dissociation.

In this assay the target is T1, Cynomolgus CD3εδ Fc heterodimer (Cy …). Kind of assay: BLI (Octet), IgG on AHC sensor, pH 6.0. (Biolayer interferometry detects binding as a change in optical thickness at a sensor tip.)
B1: the koff turned out to be 0.012 s⁻¹.
The figure for B2 is 0.00263 s⁻¹; for B3 it is 0.00281 s⁻¹; for B4 it is 0.0189 s⁻¹.
In turn, B5 yielded a koff of 0.00194 s⁻¹.
The figure for B6 is 0.00268 s⁻¹; for B7 it is 0.0182 s⁻¹; for B8 it is 0.0197 s⁻¹.
With B9 the figure was 0.0144 s⁻¹.
Take B10: the koff was 0.0278 s⁻¹.
The figure for B11 is 0.00334 s⁻¹; for B12 it is 0.00264 s⁻¹.
The figure for B13 is 0.00291 s⁻¹; for B14 it is 0.0051 s⁻¹; for B15 it is 0.0215 s⁻¹.
Regarding B16, the dissociation rate constant (koff) was found to be 0.0029 s⁻¹.
With B17 the figure was 0.00258 s⁻¹; with B18, 0.0303 s⁻¹; with B19, 0.0168 s⁻¹.
With B20 the figure was 0.0194 s⁻¹; with B21, 0.00277 s⁻¹; with B22, 0.0047 s⁻¹.
In the case of B23, the koff turned out to be 0.015 s⁻¹.
With B24 the figure was 0.0176 s⁻¹.
The figure for B25 is 0.00269 s⁻¹.
The figure for B26 is 0.0207 s⁻¹; for B27 it is 0.00699 s⁻¹.
Molecule B28 gave a koff of 0.0162 s⁻¹.
With B29 the figure was 0.0144 s⁻¹.
For the molecule B30, the koff was 0.00318 s⁻¹.
The figure for B31 is 0.0195 s⁻¹.
The figure for B32 is 0.0223 s⁻¹; for B33 it is 0.00307 s⁻¹.
The figure for B34 is 0.00621 s⁻¹.
B35 came in with an off-rate constant (koff) of 0.00224 s⁻¹.
The figure for B36 is 0.0152 s⁻¹; for B37 it is 0.0171 s⁻¹; for B38 it is 0.0207 s⁻¹.
As for B39, the koff stood at 0.0187 s⁻¹.
B40 displayed a koff of 0.00239 s⁻¹.
The figure for B41 is 0.00642 s⁻¹.
The figure for B42 is 0.00719 s⁻¹.
